“Also recorded” adds a separate entry of the source.
Key:
[1] = tested on: PBMCs; test: IL-6 and IL-1β production by PBMCs stimulated with S100 A8 (ELISA); format: cell-based, human; conditions: S100 A8 0.5 μg/ml with antibody to TLR4, TLR2 or sRAGE, 14 hours
Protocol: FIG. 13. […] PBMCs at 1*10^5/ml were incubated in 10% FCS with S100 A8 0.5 μg/ml with the addition of either antibody to TLR4, TLR2 or isotype controls, or sRAGE over 14 hours. IL-6 (A) and […] (B) levels were determined by ELISA.

[2] = tested on: tibial fracture; test: murine tibial fracture model: callus mineralization (microCT) and histology after local administration at fracture site; format: in vivo, mouse; conditions: exogenous alarmin at fracture site days 0 and 1 (rmHMGB1 20 μL at 50 ng/ml); day 28 microCT
Protocol: Percentage callus mineralization was determined from the fracture site to 1 mm proximally (mean+/−SEM). FIG. 5. Dose response of exogenous TNF-α in vivo. 20 μL of PBS with rhTNF-α at the corresponding dose was injected at the fracture site at days 0 and 1 in C57BI/6 mice. At day 28, mice were harvested and limbs scanned by microCT in a blinded fashion. Percentage callus mineralization was determined from the fracture site to 1 mm proximally (threshold density of 350 mg/cm^3). * p<0.05, ** p<0.01. FIG. 7A. […] Percentage callus mineralization was determined from the fracture site to 1 mm proximally (mean+/−SEM). FIG. 18. […] C57BI6 mice were subjected to fracture model with addition of 20 μL of rmHMGB1 at 50 ng/ml at the fracture site at days 0 and 1 compared to controls. Addition of exogenous S100A8 or S100A9 or S100A8/9 had no effect, possibly because the fracture environment may already contain optimal amounts of S100 A8 or A9 proteins. All mice were harvested at day 28 and limbs scanned by microCT in a blinded fashion. Percentage callus mineralization was determined from the fracture site to 1 mm proximally (mean+/−SEM). […] Inflammation plays a vital role in early fracture repair^11,12. In murine models, TNF-α, IL-1 and IL-6 are expressed at the fracture site within 24 hours of injury^13,14. Biphasic expression of TNF-α and IL-1β appears to be linked to the initiation of fracture repair and later to endochondral maturation^14,15. In our murine model, callus mineralization at day 28 was enhanced when TNF-α, at a concentration of 50 ng/kg was injected locally following injury (day 0) and 24 hours later.

[3] = tested on: muscle derived stromal cells (MDSCs); test: osteogenic activity of supernatant from stimulated PBMCs: alkaline phosphatase in MDSCs over 7 d; format: cell-based, human; conditions: S100 A8 at indicated doses (μg/ml) or LPS 10 ng/ml; MDSCs 7 d
Protocol: FIG. 15. Supernatant from PBMCs stimulated with S100A8 but not LPS is osteogenic. PBMCs at 1*10^5/ml were stimulated with S100 A8 at indicated doses (μg/ml), or LPS at 10 ng/ml. The supernatants were harvested and filter-sterilised through a 0.2 μm filter. MDSCs were cultured in this S100 A8-stimulated supernatant over 7 d and alkaline phosphatase levels quantified.
FIG. 16. Osteogenic activity of supernatant from human monocytes exposed to varying doses of LPS.

[4] = tested on: PBMCs; test: TNF-α production by PBMCs (ELISA, 14 hours); format: cell-based, human; conditions: PBMCs 1*10^5/ml, 10% FCS, alarmin at indicated doses
Protocol: FIG. 10. […] (A) PBMCs at 1*10^5/ml were incubated in 10% fetal calf serum (FCS) with S100 A8 at indicated doses. […] (B) PBMCs at 1*10^5/ml were incubated in 10% FCS with S100 A8 at 0.5 μg/ml with the addition of either antibody to TLR4, TLR2 or isotype controls (not shown), or sRAGE over 14 hours. TNF-α levels were determined by ELISA.
FIG. 12. […] PBMCs at 1*10^5/ml were incubated in 10% FCS with S100 A8, S100 A9 or S100 A12 at the indicated doses over 14 hours. TNF-α levels were determined by ELISA.
FIG. 17. […] PBMCs at 1*10^5/ml were incubated in 10% FCS with HMGB1 or LPS at the indicated doses over 14 hours; TNF-α levels were determined by ELISA.

B1: S100A8: alarmin; rhS100A8 added to human PBMCs (protein, UniProt P05109 1-93, looked up)
Protein S100-A8: MLTELEKALNSIIDVYHKYSLIKGNFHAVYRDDLKKLLETECPQYIRKKGADVWFKELDINTDGAVNFQEFLILVIKMGVAAHKKSHEESHKE
receptor dependence of IL-6 and IL-1β production [1]: produced by monocytes via TLR4 and also RAGE, but not TLR2 | fracture healing / percentage callus mineralization [2]: no effect | osteogenic activity of stimulated PBMC supernatant (alkaline phosphatase) [3]: led to osteogenesis; also recorded: osteogenic | TNF-α production by PBMCs ([4]; listed as S100 A8): stimulates monocytes to produce TNF-α in a dose dependent manner; also recorded: dose-dependent increase in TNF-α production | TNF-α production by PBMCs ([4]; listed as rhS100A8): resulted in production of TNF-α

From US20140056960A1, “Methods for Improving Fracture Healing and Bone Formation” (Imperial Innovations Limited, priority 2010, published 2014)
